Each block holds one binder with its values, some of them ahead of it.
Legend:
Assay in all cases: cell-based or functional assay
activin B = target: T1, activin B (UniProt P09529 293-407)
T1 sequence (looked up): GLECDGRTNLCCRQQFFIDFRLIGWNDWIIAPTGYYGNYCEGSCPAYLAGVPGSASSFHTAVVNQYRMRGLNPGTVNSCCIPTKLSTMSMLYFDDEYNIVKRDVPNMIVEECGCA

GDF-11 = target: T2, GDF-11 (UniProt O95390 299-407)
T2 sequence (looked up): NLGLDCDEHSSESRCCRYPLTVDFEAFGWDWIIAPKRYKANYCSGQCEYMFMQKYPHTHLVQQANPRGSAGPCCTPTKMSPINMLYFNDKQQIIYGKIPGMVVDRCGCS

[1] = target: T3, recombinant human activin A (human, UniProt P08476 311-426)
T3 sequence (looked up): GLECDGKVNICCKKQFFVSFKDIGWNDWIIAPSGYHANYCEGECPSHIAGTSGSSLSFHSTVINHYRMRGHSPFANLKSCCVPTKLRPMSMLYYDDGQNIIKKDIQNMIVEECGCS

GDF-8 = target: T4, GDF-8 (UniProt O14793 267-375)
T4 sequence (looked up): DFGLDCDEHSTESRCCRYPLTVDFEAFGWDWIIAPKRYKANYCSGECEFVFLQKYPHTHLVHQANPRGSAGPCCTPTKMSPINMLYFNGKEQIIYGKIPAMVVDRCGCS

BMP-9 = target: T5, BMP-9 (UniProt Q9UK05 320-429)
T5 sequence (looked up): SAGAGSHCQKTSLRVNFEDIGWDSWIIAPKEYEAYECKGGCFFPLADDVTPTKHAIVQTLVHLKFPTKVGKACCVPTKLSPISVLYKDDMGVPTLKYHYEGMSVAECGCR

BMP-10 = target: T6, BMP-10 (UniProt O95393 317-424)
T6 sequence (looked up): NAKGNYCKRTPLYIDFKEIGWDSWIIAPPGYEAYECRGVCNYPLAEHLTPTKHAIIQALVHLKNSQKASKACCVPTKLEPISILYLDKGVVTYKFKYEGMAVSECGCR

Activin B IC50 (activin B): 2 nM
GDF-11 IC50 (GDF-11): 0.53 nM
Activin A IC50 [1]: 0.56 nM
GDF-8 IC50 (GDF-8): 0.18 nM
BMP-9 IC50 (BMP-9): > 1000 nM
BMP-10 IC50 (BMP-10): > 100 nM
B1: P1372 (Fc fusion)
chain: ETRECIYYNANWELERTNQSGLERCEGEQDKRWHCYASWRNSSGTIELVKKGCWLDDFNCYDRQECVATEENPQVYFCCCEGNFCNERFTHLPEAGGPEVTYEPPPTGGGGSGGGGSGGGGTHTCPPCPAPELLGGPSVFLFPPKPKDTLYITREPEVTCVVVDVSHEDPEVKFNWYVDGVEVHNAKTKPREEQYNSTYRVVSVLTVLHQDWLNGKEYKCKVSNKALPAPIEKTISKAKGQPREPQVYTLPPSRDELTKNQVSLTCLVKGFYPSDIAVEWESNGQPENNYKTTPPVLDSDGSFFLYSKLTVDKSRWQQGNVFSCSVMHEALHNHYTQKSLSLSPG

Activin B IC50 (activin B): 2 nM
GDF-11 IC50 (GDF-11): 0.39 nM
Activin A IC50 [1]: 0.53 nM
GDF-8 IC50 (GDF-8): 0.33 nM
BMP-9 IC50 (BMP-9): > 1000 nM
BMP-10 IC50 (BMP-10): > 100 nM
B2: P1375 (Fc fusion)
chain: ETRECIYYNANWELERTNQSGLERCEGEQDKRWHCYASWRNSSGTIELVKKGCWLDDFNCYDRQECVATEENPQVYFCCCEGNFCNERFTHLPEAGGPEVTYEPPPTGGGGSGGGGSGGGGSGGGGTHTCPPCPAPELLGGPSVFLFPPKPKDTLYITREPEVTCVVVDVSHEDPEVKFNWYVDGVEVHNAKTKPREEQYNSTYRVVSVLTVLHQDWLNGKEYKCKVSNKALPAPIEKTISKAKGQPREPQVYTLPPSRDELTKNQVSLTCLVKGFYPSDIAVEWESNGQPENNYKTTPPVLDSDGSFFLYSKLTVDKSRWQQGNVFSCSVMHEALHNHYTQKSLSLSPG

Source: US20240254195A1 (35PHARMA, published 2024)
